Results as given in paper PMC6927325.

Tests used:
[1] = target: fluorescein-labeled ALK peptide F1577…1587; assay: fluorescence polarisation; fluorescein-labeled peptides and GST-PTBi in solution
[2] = target: fluorescein-labeled ALK peptide G1473…1483; assay: as above

## GST-fused NUMB PTB domain with the exon 3 insert (11 aa) (domain or fragment)
[1]
  Kd: 0.5 µM
[2]
  Kd: 0.7 µM
